Experimental data: PMC7863765 (Journal of Molecular Biology, 2021)

Target: the molecule itself
Assay: SEC-MALS

B1: untagged full-length human 14-3-3γ (natural protein, UniProt P61981 1-247, looked up)
chain: MVDREQLVQKARLAEQAERYDDMAAAMKNVTELNEPLSNEERNLLSVAYKNVVGARRSSWRVISSIEQKTSADGNEKKIEMVRAYREKIEKELEAVCQDVLSLLDNYLIKNCSETQYESKVFYLKMKGDYYRYLAEVATGEKRATVVESSEKAYSEAHEISKEHMQPTHPIRLGLALNYSVFYYEIQNAPEQACHLAKTAFDDAIAELDTLNEDSYKDSTLIMQLLRDNLTLWTSDQQDDDGGEGNN
notes: human 14-3-3 protein gamma, full length, untagged
- stoichiometry N: 2
